Source: the supplement of paper PMC10724198
± gives the standard deviation of the averaged measurements.

What was measured:
[1] = tested on: Saccharomyces cerevisiae; test: protein stability index of tFT-peptide fusion (C-terminal peptide) (PSI (0-1 scale)); higher = more stable (slower turnover)
Method: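 MPS profiling in S. cerevisiae of the tFT-X12 degron library: putative degron peptides plus stable controls, 12 aa, fused to the C-terminus of a sfGFP-mCherry timer. Cells are FACS-sorted into 8 mCherry/sfGFP bins and deep-sequenced. PSI runs from 0 (unstable) to 1 (stable). Backgrounds are wild type, das1Δ and doa10Δ at 30 °C, and wild type, das1Δ, cdc34-1 and cdc53-1 at 37 °C; 2-3 technical replicates each.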

[2] = tested on: Saccharomyces cerevisiae; test: as above; settings: genetic background: wild type; temperature: 30 C
[3] = genetic background: cdc34-1, temperature: 37 C
[4] = genetic background: cdc53-1, temperature: 37 C
[5] = genetic background: das1 deletion, temperature: 30 C
[6] = genetic background: das1 deletion, temperature: 37 C
[7] = genetic background: doa10 deletion, temperature: 30 C
[8] = genetic background: wild type, temperature: 30 C
[9] = genetic background: wild type, temperature: 37 C
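Note: PSI is a weighted mean of sequencing reads over stability bins, variants kept only with over 10 reads, mCherry proximal and sfGFP distal, peptide attached via GGGS linker.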

| Sequence | protein stability index [1, 3] | protein stability index [1, 4] | protein stability index [1, 5] | protein stability index [1, 6] | protein stability index [1, 7] | protein stability index [1, 8] | protein stability index [1, 9] | protein stability index [2] |
| --- | --- | --- | --- | --- | --- | --- | --- | --- |
| TVETYNRARKAS | 0.663 ± 0.0089 | 0.674 ± 0.014 | 0.631 ± 0.038 | 0.7 ± 0.015 | 0.218 ± 0.013 | 0.232 ± 0.039 | 0.412 ± 0.005 | 0.373 ± 0.075 |
| TVVIFLCSYITT | 0.183 ± 0.06 | 0.24 ± 0.11 | 0.139 ± 0.015 | 0.298 ± 0.008 | 0.0829 ± 0.03 | 0.122 ± 0.04 | 0.275 ± 0.019 | 0.186 ± 0.0068 |
| TYNVMFSPWRKA | 0.604 ± 0.07 | 0.7064 ± 0.005 | 0.667 ± 0.032 | 0.774 ± 0.0098 | 0.106 ± 0.007 | 0.148 ± 0.034 | 0.3808 ± 0.0022 | 0.206 ± 0.011 |
| TYYPLNRSRFIG | 0.5858 ± 0.0048 | 0.7261 ± 0.0025 | 0.635 ± 0.035 | 0.7616 ± 0.0049 | 0.108 ± 0.0073 | 0.139 ± 0.0058 | 0.241 ± 0.023 | 0.277 ± 0.15 |
| VAALFPPLRFLN | 0.554 ± 0.0075 | 0.711 ± 0.008 | 0.653 ± 0.017 | 0.734 ± 0.014 | 0.0912 ± 0.013 | 0.122 ± 0.036 | 0.224 ± 0.031 | 0.286 ± 0.045 |
| VCFAWWGARCVA | 0.601 ± 0.01 | 0.619 ± 0.0063 | 0.468 ± 0.026 | 0.6475 ± 0.0032 | 0.304 ± 0.024 | 0.357 ± 0.028 | 0.534 ± 0.029 | 0.477 ± 0.023 |
| VCFFLFWCLSFS | 0.4239 ± 0.0013 | 0.479 ± 0.021 | 0.343 ± 0.05 | 0.4916 ± 0.00098 | 0.348 ± 0.011 | 0.353 ± 0.025 | 0.476 ± 0.021 | 0.454 ± 0.034 |
| VCLCVIICSMSV | 0.0201 ± 0.00092 | 0.041 ± 0.019 | 0.0324 ± 0.008 | 0.0699 ± 0.011 | 0.0265 ± 0.0033 | 0.0249 ± 0.0073 | 0.0544 ± 0.01 | 0.0535 ± 0.018 |
| VCQVCVCFLFWR | 0.0977 ± 0.0034 | 0.0539 ± 0.0021 | 0.145 ± 0.032 | 0.181 ± 0.0077 | 0.27 ± 0.018 | 0.139 ± 0.016 | 0.169 ± 0.017 | 0.228 ± 0.043 |
| VCVVVLVGVVFL | 0.188 ± 0.031 | 0.3491 ± 0.0012 | 0.237 ± 0.02 | 0.3828 ± 0.0025 | 0.198 ± 0.0055 | 0.24 ± 0.031 | 0.314 ± 0.0088 | 0.3 ± 0.036 |
| VELRNCYLLVKA | 0.204 ± 0.0059 | 0.282 ± 0.013 | 0.222 ± 0.037 | 0.381 ± 0.013 | 0.178 ± 0.018 | 0.22 ± 0.032 | 0.34 ± 0.0065 | 0.327 ± 0.037 |
| VFFLAFYFYRCF | 0.405 ± 0.02 | 0.464 ± 0.018 | 0.416 ± 0.015 | 0.545 ± 0.0085 | 0.186 ± 0.0064 | 0.194 ± 0.029 | 0.365 ± 0.0085 | 0.262 ± 0.02 |
| VFMSVAPVSVLG | 0.115 ± 0.047 | 0.118 ± 0.045 | 0.198 ± 0.026 | 0.2589 ± 0.00033 | 0.154 ± 0.016 | 0.184 ± 0.023 | 0.235 ± 0.0013 | 0.29 ± 0.015 |
| VFSAIPDWLILA | 0.492 ± 0.017 | 0.5094 ± 0.0035 | 0.387 ± 0.041 | 0.5492 ± 0.0043 | 0.279 ± 0.013 | 0.319 ± 0.016 | 0.462 ± 0.018 | 0.453 ± 0.0079 |
| VFSVTVVFVSVL | 0.158 ± 0.0021 | 0.271 ± 0.062 | 0.192 ± 0.035 | 0.383 ± 0.014 | 0.168 ± 0.011 | 0.191 ± 0.024 | 0.324 ± 0.012 | 0.298 ± 0.046 |
| VFVGGVSVLILF | 0.531 ± 0.051 | 0.638 ± 0.0089 | 0.438 ± 0.026 | 0.602 ± 0.0081 | 0.413 ± 0.0093 | 0.434 ± 0.033 | 0.584 ± 0.0086 | 0.516 ± 0.044 |
| VFWLLVGLGCFS | 0.561 ± 0.017 | 0.563 ± 0.013 | 0.431 ± 0.025 | 0.572 ± 0.0075 | 0.41 ± 0.033 | 0.417 ± 0.028 | 0.5686 ± 0.0022 | 0.481 ± 0.012 |
| VFYWVGVLCGWG | 0.298 ± 0.0073 | 0.391 ± 0.045 | 0.293 ± 0.026 | 0.4352 ± 0.0014 | 0.252 ± 0.012 | 0.29 ± 0.023 | 0.405 ± 0.018 | 0.375 ± 0.007 |
| VGCMVVIWVLWG | 0.153 ± 0.0096 | 0.225 ± 0.025 | 0.19 ± 0.034 | 0.313 ± 0.013 | 0.145 ± 0.001 | 0.18 ± 0.026 | 0.278 ± 0.025 | 0.325 ± 0.043 |
| VGFCICISIMSF | 0.0373 ± 0.016 | 0.109 ± 0.025 | 0.125 ± 0.025 | 0.214 ± 0.023 | 0.09907 ± 0.00077 | 0.108 ± 0.031 | 0.209 ± 0.027 | 0.213 ± 0.046 |

| Sequence | protein stability index [1, 3] | protein stability index [1, 4] | protein stability index [1, 5] | protein stability index [1, 6] | protein stability index [1, 7] | protein stability index [1, 8] | protein stability index [1, 9] | protein stability index [2] |
| --- | --- | --- | --- | --- | --- | --- | --- | --- |
| VGPLAPVCLLVL | 0.445 ± 0.025 | 0.4817 ± 0.0043 | 0.36 ± 0.038 | 0.516 ± 0.013 | 0.325 ± 0.012 | 0.359 ± 0.019 | 0.477 ± 0.0057 | 0.459 ± 0.046 |
| VILCSCSFVLRP | 0.523 ± 0.011 | 0.583 ± 0.023 | 0.373 ± 0.021 | 0.57243 ± 0.00022 | 0.362 ± 0.026 | 0.376 ± 0.02 | 0.5617 ± 0.0053 | 0.401 ± 0.0085 |
| VKIEVICRVSLI | 0.334 ± 0.031 | 0.459 ± 0.028 | 0.403 ± 0.02 | 0.495 ± 0.043 | 0.338 ± 0.0092 | 0.394 ± 0.05 | 0.404 ± 0.0055 | 0.429 ± 0.024 |
| VLCFFWWWCRVC | 0.4 ± 0.021 | 0.525 ± 0.038 | 0.472 ± 0.019 | 0.583 ± 0.044 | 0.353 ± 0.02 | 0.324 ± 0.035 | 0.4133 ± 0.001 | 0.43 ± 0.017 |
| VLFVRGHTLWLM | 0.6124 ± 0.0026 | 0.675 ± 0.01 | 0.556 ± 0.024 | 0.702 ± 0.025 | 0.4861 ± 0.0031 | 0.458 ± 0.017 | 0.6344 ± 0.0035 | 0.505 ± 0.033 |
| VLSCIPRLAIAA | 0.335 ± 0.01 | 0.372 ± 0.019 | 0.284 ± 0.023 | 0.404 ± 0.008 | 0.235 ± 0.0017 | 0.251 ± 0.0058 | 0.318 ± 0.0072 | 0.327 ± 0.017 |
| VLVVTAFTFSCP | 0.352 ± 0.049 | 0.4393 ± 0.00063 | 0.327 ± 0.018 | 0.416 ± 0.022 | 0.319 ± 0.015 | 0.317 ± 0.015 | 0.392 ± 0.02 | 0.324 ± 0.0049 |
| VLVVVRSLSFLS | 0.405 ± 0.065 | 0.51 ± 0.011 | 0.347 ± 0.025 | 0.534 ± 0.015 | 0.308 ± 0.013 | 0.31 ± 0.023 | 0.496 ± 0.013 | 0.382 ± 0.019 |
| VNRRCWISRTLP | 0.599 ± 0.023 | 0.716 ± 0.0041 | 0.645 ± 0.024 | 0.713 ± 0.012 | 0.137 ± 0.039 | 0.174 ± 0.04 | 0.289 ± 0.058 | 0.258 ± 0.065 |
| VPASWLRMLAFC | 0.197 ± 0.0024 | 0.578 ± 0.025 | 0.559 ± 0.024 | 0.701 ± 0.047 | 0.0659 ± 0.0043 | 0.0647 ± 0.013 | 0.0629 ± 0.016 | 0.05335 ± 0.00032 |
| VRFSAVFVKVGV | 0.547 ± 0.031 | 0.553 ± 0.0091 | 0.395 ± 0.026 | 0.5703 ± 0.0032 | 0.377 ± 0.0083 | 0.402 ± 0.023 | 0.5317 ± 0.0017 | 0.4727 ± 0.0026 |
| VRIGCSLLFFLP | 0.661 ± 0.036 | 0.734 ± 0.014 | 0.589 ± 0.0067 | 0.6934 ± 0.0062 | 0.478 ± 0.015 | 0.501 ± 0.015 | 0.6267 ± 0.0046 | 0.532 ± 0.051 |
| VRSELHINSFIH | 0.656 ± 0.0076 | 0.767 ± 0.017 | 0.682 ± 0.017 | 0.741 ± 0.017 | 0.499 ± 0.047 | 0.501 ± 0.015 | 0.681 ± 0.025 | 0.53 ± 0.054 |
| VRTFVFLVGYCE | 0.594 ± 0.032 | 0.62 ± 0.024 | 0.406 ± 0.027 | 0.614 ± 0.023 | 0.393 ± 0.035 | 0.394 ± 0.034 | 0.557 ± 0.04 | 0.458 ± 0.036 |
| VRVFSLVVCWVV | 0.297 ± 0.064 | 0.359 ± 0.0043 | 0.262 ± 0.026 | 0.441 ± 0.0051 | 0.199 ± 0.004 | 0.219 ± 0.028 | 0.367 ± 0.032 | 0.414 ± 0.037 |
| VSSSFSVLVLLF | 0.448 ± 0.017 | 0.545 ± 0.035 | 0.375 ± 0.037 | 0.571 ± 0.013 | 0.317 ± 0.02 | 0.339 ± 0.026 | 0.52 ± 0.035 | 0.421 ± 0.021 |
| VTLVIYVLVQLT | 0.148 ± 0.062 | 0.198 ± 0.11 | 0.156 ± 0.044 | 0.259 ± 0.0037 | 0.123 ± 0.02 | 0.15 ± 0.031 | 0.216 ± 0.037 | 0.188 ± 0.035 |
| VTTTWTWTVRLC | 0.538 ± 0.045 | 0.631 ± 0.016 | 0.54 ± 0.018 | 0.656 ± 0.034 | 0.0752 ± 0.019 | 0.0807 ± 0.024 | 0.149 ± 0.0059 | 0.15 ± 0.024 |
| VVAALTPLITVA | 0.0655 ± 0.023 | 0.084 ± 0.0042 | 0.183 ± 0.021 | 0.202 ± 0.0041 | 0.151 ± 0.011 | 0.179 ± 0.024 | 0.138 ± 0.0061 | 0.261 ± 0.04 |
